Reference: patent US20220296683A1, “ORAL DELIVERY SYSTEM” (University College Dublin, priority 2019, published 2022)

Assay: Circular dichroism of secondary structure of SiNP-released peptide
Type: physicochemical
Details: CD
Text: The behaviour of insulin-SiNPs and exenatide-SiNPs in biologically-relevant buffers depended on media pH and salinity. Both constructs aggregated in PBS, while remaining colloidally-stable in simulated small intestinal fluid (SIF) at pH 6.3 (Supplementary FIGS. 18, 19 for insulin-SiNPs and exenatide-SiNPs, respectively). PBS was used to measure the concentration of the released peptide, while SIF was used to examine secondary structure. For insulin-SiNPs (˜300 nm in diameter, particle concentration of 0.2 mg/mL), release was measured by HPLC in simulated gastric fluid (SGF) at pH 2.3, SIF at pH 6.3, and PBS at pH 7.4. […] Exenatide-SiNP dissolved in PBS in a size-dependent fashion: particles of ˜90 nm in diameter dissolved within 60 min at a particle concentration 0.2 mg/mL, while ˜200 nm diameter particles took over 3 h (Supplementary FIG. 20a). […] Parameters used were as follows: • Measurement window: 200-300 nm. • Data pitch: 0.5 nm • Band width: 2 nm • Response: 4 sec • Scanning speed 50 nm/min • Number of runs in measurement (accumulation): 8 • Temperature: Room temperature (20° C.) Insulin, L-arg solutions, mixtures and insulin core and SiNPs were measured at appropriate concentration in an ultra-low volume (1=1 mm) cuvette and at appropriate concentrations. […]

released exenatide: exenatide released from exenatide-SiNPs in PBS
secondary structure of released peptide vs free peptide: comparable to that of the free peptide
